{"source": "paper PMC5827114", "about": "“A cryptic RNA-binding domain mediates Syncrip recognition and exosomal partitioning of miRNA targets”", "key": {"Syncrip NURR domain (N) [1]": {"target": "T1, Syncrip NURR domain (N) (Homo sapiens, UniProt O60506 16-109)", "T1 sequence": "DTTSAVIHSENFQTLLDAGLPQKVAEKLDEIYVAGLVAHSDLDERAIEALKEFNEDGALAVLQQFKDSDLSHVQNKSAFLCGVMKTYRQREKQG", "assay": "NMR; BLI: 5 mM Tris-HCl pH 7.4, 50 mM NaCl, 1 mM TCEP, 0.5 mg/mL BSA, 30 C; NMR: 5 mM Tris-HCl pH 7.4, 50 mM NaCl, 0.5 mM TCEP", "details": "protein: recombinant; tags: His6-SUMO or His, removed by HRV 3C"}, "Syncrip NeR1": {"target": "T2, Syncrip NeR1 (Homo sapiens, UniProt O60506 16-242)", "T2 sequence": "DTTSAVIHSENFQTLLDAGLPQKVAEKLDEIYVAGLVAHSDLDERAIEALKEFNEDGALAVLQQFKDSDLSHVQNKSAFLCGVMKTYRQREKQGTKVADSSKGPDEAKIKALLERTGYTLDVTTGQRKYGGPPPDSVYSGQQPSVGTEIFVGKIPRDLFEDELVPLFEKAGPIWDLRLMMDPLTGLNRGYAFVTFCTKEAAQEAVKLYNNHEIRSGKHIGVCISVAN", "assay": "NMR; 50 uM protein, 1:1 and 1:2; BLI: 5 mM Tris-HCl pH 7.4, 50 mM NaCl, 1 mM TCEP, 0.5 mg/mL BSA, 30 C; NMR: 5 mM Tris-HCl pH 7.4, 50 mM NaCl, 0.5 mM TCEP", "details": "protein: recombinant; tags: His6-SUMO or His, removed by HRV 3C"}, "Syncrip NeR1R2R3 [2]": {"target": "T3, Syncrip NeR1R2R3 (Homo sapiens, UniProt O60506 16-428)", "T3 sequence": "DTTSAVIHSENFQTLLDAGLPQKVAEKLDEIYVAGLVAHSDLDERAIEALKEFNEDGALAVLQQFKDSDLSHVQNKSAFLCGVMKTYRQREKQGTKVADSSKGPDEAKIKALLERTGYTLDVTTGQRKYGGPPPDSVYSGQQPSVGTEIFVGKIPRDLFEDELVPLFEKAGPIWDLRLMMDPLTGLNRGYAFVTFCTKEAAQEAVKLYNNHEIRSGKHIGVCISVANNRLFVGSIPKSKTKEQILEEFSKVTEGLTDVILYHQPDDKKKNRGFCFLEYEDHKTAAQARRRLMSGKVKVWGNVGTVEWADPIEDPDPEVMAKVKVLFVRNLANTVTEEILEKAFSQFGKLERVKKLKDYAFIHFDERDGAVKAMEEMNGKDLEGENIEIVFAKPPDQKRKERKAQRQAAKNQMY", "assay": "NMR; only NURR resonances shift; BLI: 5 mM Tris-HCl pH 7.4, 50 mM NaCl, 1 mM TCEP, 0.5 mg/mL BSA, 30 C; NMR: 5 mM Tris-HCl pH 7.4, 50 mM NaCl, 0.5 mM TCEP", "details": "protein: recombinant; tags: His6-SUMO or His, removed by HRV 3C"}, "Syncrip NeR1 R60A G97L": {"target": "T4, Syncrip NeR1 R60A G97L (Homo sapiens, UniProt O60506 16-242, R60A;G97L)", "T4 sequence": "T2 sequence with R45A, G82L", "assay": "NMR; 50 uM protein, 1:1 and 1:2; legend: binding eliminated (text: impaired); BLI: 5 mM Tris-HCl pH 7.4, 50 mM NaCl, 1 mM TCEP, 0.5 mg/mL BSA, 30 C; NMR: 5 mM Tris-HCl pH 7.4, 50 mM NaCl, 0.5 mM TCEP", "details": "protein: recombinant; tags: His6-SUMO or His, removed by HRV 3C"}, "Syncrip NeR1R2R3 [3]": {"target": "T3, Syncrip NeR1R2R3", "assay": "BLI; BLI: 5 mM Tris-HCl pH 7.4, 50 mM NaCl, 1 mM TCEP, 0.5 mg/mL BSA, 30 C; NMR: 5 mM Tris-HCl pH 7.4, 50 mM NaCl, 0.5 mM TCEP", "details": "protein: recombinant; tags: His6-SUMO or His, removed by HRV 3C; label: 5'-biotin"}, "Syncrip NeR1R2R3 [4]": {"target": "T3, Syncrip NeR1R2R3", "assay": "BLI; BLI: 5 mM Tris-HCl pH 7.4, 50 mM NaCl, 1 mM TCEP, 0.5 mg/mL BSA, 30 C; NMR: 5 mM Tris-HCl pH 7.4, 50 mM NaCl, 0.5 mM TCEP", "details": "protein: recombinant; tags: His6-SUMO or His, removed by HRV 3C; label: 5'-biotin (BLI)"}, "Syncrip NURR domain (N) [5]": {"target": "T1, Syncrip NURR domain (N)", "assay": "BLI; BLI: 5 mM Tris-HCl pH 7.4, 50 mM NaCl, 1 mM TCEP, 0.5 mg/mL BSA, 30 C; NMR: 5 mM Tris-HCl pH 7.4, 50 mM NaCl, 0.5 mM TCEP", "details": "protein: recombinant; tags: His6-SUMO or His, removed by HRV 3C; label: 5'-biotin"}}, "note": "Substitutions are numbered along the chain they refer to."}
{"binder": "AGGCU (ssRNA)", "note": "[hEXO-motif RNA]", "values": [{"measurement": "binding result", "setting": "Syncrip NURR domain (N) [1]", "result": "binds"}, {"measurement": "binding result", "setting": "Syncrip NeR1", "result": "binds"}, {"measurement": "binding result", "setting": "Syncrip NeR1R2R3 [2]", "result": "binds"}, {"measurement": "binding result", "setting": "Syncrip NeR1 R60A G97L", "result": "no binding"}]}
{"binder": "UCACUUUGUAGACCAAGUGUU (ssRNA)", "note": "[chimera miR-3470 (delta-hEXO mutant)]", "values": [{"measurement": "fold loss of affinity vs miR-3470 wild type", "setting": "Syncrip NeR1R2R3 [3]", "result": "~6 fold lower affinity than miR-3470 wild type"}]}
{"binder": "UCACUUUGUAGACCAGGCUGG (ssRNA)", "note": "[miR-3470 full-length]", "values": [{"measurement": "Kd", "setting": "Syncrip NeR1R2R3 [4]", "result": "0.002 ± 0.0002", "unit": "µM"}]}
{"binder": "GUAGACCAGGCUGG (ssRNA)", "note": "[14mer miR-3470]", "values": [{"measurement": "Kd", "setting": "Syncrip NURR domain (N) [5]", "result": "29 ± 2", "unit": "µM"}]}
